“And” between values parts separate entries of the source, which are not always exact repeats. Identical values can stand only once.
T1: pUL21-H6 (HSV-1 pUL21) (herpes simplex virus 1, UniProt F8RG07 1-535)
T1 construct: tegument protein pUL21 of herpes simplex virus 1, UniProt F8RG07; source: E. coli T7 Express lysY/Iq, purified (Ni-NTA, SEC); not shown: His6, C-terminal, kept
T1 sequence: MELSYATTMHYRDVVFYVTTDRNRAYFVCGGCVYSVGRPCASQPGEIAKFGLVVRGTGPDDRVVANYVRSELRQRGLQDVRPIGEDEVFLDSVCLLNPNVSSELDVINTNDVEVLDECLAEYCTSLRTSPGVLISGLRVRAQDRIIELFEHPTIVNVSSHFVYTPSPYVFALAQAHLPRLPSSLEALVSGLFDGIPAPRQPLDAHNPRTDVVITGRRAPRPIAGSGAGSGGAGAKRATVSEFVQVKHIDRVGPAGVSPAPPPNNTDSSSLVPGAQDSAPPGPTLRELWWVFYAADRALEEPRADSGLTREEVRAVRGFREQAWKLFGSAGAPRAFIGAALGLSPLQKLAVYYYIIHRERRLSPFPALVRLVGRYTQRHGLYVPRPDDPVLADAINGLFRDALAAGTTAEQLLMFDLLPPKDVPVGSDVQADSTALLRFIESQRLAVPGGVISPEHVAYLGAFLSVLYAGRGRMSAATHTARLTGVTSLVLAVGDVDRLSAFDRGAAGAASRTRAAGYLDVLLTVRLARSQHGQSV


Target: T1, pUL21-H6 (HSV-1 pUL21)
Assay: ITC; CERTL forms in the syringe titrated into pUL21 forms in the cell; 25 °C; 20 mM Tris pH 8.5, 500 mM NaCl, 0.5 mM TCEP; one-site binding model; single titrations
Settings: both partners purified

Binder	stoichiometry N
StrepII-CERTL^P (hyperphosphorylated human CERTL) (natural protein, UniProt Q9Y5P4-1 1-624, looked up, hyperphosphorylated (CERTL^P); sites not given, ceramide transport protein CERT, longer cytoplasmic isoform CERTL (with exon 11), human, UniProt Q9Y5P4-1; not shown: StrepII, N-terminal, kept) MSDNQSWNSSGSEEDPETESGPPVERCGVLSKWTNYIHGWQDRWVVLKNNALSYYKSEDETEYGCRGSICLSKAVITPHDFDECRFDISVNDSVWYLRAQDPDHRQQWIDAIEQHKTESGYGSESSLRRHGSMVSLVSGASGYSATSTSSFKKGHSLREKLAEMETFRDILCRQVDTLQKYFDACADAVSKDELQRDKVVEDDEDDFPTTRSDGDFLHSTNGNKEKLFPHVTPKGINGIDFKGEAITFKATTAGILATLSHCIELMVKREDSWQKRLDKETEKKRRTEEAYKNAMTELKKKSHFGGPDYEEGPNSLINEEEFFDAVEAALDRQDKIEEQSQSEKVRLHWPTSLPSGDAFSSVGTHRFVQKPYSRSSSMSSIDLVSASDDVHRFSSQVEEMVQNHMTYSLQDVGGDANWQLVVEEGEMKVYRREVEENGIVLDPLKATHAVKGVTGHEVCNYFWNVDVRNDWETTIENFHVVETLADNAIIIYQTHKRVWPASQRDVLYLSVIRKIPALTENDPETWIVCNFSVDHDSAPLNNRCVRAKINVAMICQTLVSPPEGNQEISRDNILCKITYVANVNPGGWAPASVLRAVAKREYPKFLKRFTSYVQEKTAGKPILF	0.76 and 0.72 and 0.74
StrepII-CERTL^S132A (constitutively hypophosphorylated human CERTL) (natural protein, UniProt Q9Y5P4-1 1-624, looked up, ceramide transport protein CERT, longer cytoplasmic isoform CERTL, human, UniProt Q9Y5P4-1, with S132A; source: Freestyle 293F cells, stably transfected, doxycycline-induced, purified (StrepTrap, SEC); not shown: StrepII, N-terminal, kept) MSDNQSWNSSGSEEDPETESGPPVERCGVLSKWTNYIHGWQDRWVVLKNNALSYYKSEDETEYGCRGSICLSKAVITPHDFDECRFDISVNDSVWYLRAQDPDHRQQWIDAIEQHKTESGYGSESSLRRHGAMVSLVSGASGYSATSTSSFKKGHSLREKLAEMETFRDILCRQVDTLQKYFDACADAVSKDELQRDKVVEDDEDDFPTTRSDGDFLHSTNGNKEKLFPHVTPKGINGIDFKGEAITFKATTAGILATLSHCIELMVKREDSWQKRLDKETEKKRRTEEAYKNAMTELKKKSHFGGPDYEEGPNSLINEEEFFDAVEAALDRQDKIEEQSQSEKVRLHWPTSLPSGDAFSSVGTHRFVQKPYSRSSSMSSIDLVSASDDVHRFSSQVEEMVQNHMTYSLQDVGGDANWQLVVEEGEMKVYRREVEENGIVLDPLKATHAVKGVTGHEVCNYFWNVDVRNDWETTIENFHVVETLADNAIIIYQTHKRVWPASQRDVLYLSVIRKIPALTENDPETWIVCNFSVDHDSAPLNNRCVRAKINVAMICQTLVSPPEGNQEISRDNILCKITYVANVNPGGWAPASVLRAVAKREYPKFLKRFTSYVQEKTAGKPILF	0.93 and 1.01
